Source: article PMC3316669

Experiments:
[1] = molecular target: TorA signal peptide 10-26 (Escherichia coli) (UniProt P33225); assay: ITC; settings: cited from earlier work
[2] = molecular target: MBP-ssTorA signal peptide (Escherichia coli) (UniProt P33225); assay: ITC; settings: cited from earlier work
[3] = molecular target: ssTorA-SBP signal peptide (Escherichia coli) (UniProt P33225); assay: SPR; settings: cited from earlier work
[4] = molecular target: TorD with N-terminal His-tag (E. coli) (UniProt P36662); assay: SPR; quantitative, equilibrium response against pre-protein concentration; His-tagged REMP held on a Ni-NTA chip to 500 RU, 20 µl/min, 25°C, reference surface subtracted; Scatchard plot and Langmuir 1:1 fit; 10 mM HEPES, 150 mM NaCl, 50 µM EDTA, 0.005% P20, pH 7.4

Chain of TorD (P36662 whole entry): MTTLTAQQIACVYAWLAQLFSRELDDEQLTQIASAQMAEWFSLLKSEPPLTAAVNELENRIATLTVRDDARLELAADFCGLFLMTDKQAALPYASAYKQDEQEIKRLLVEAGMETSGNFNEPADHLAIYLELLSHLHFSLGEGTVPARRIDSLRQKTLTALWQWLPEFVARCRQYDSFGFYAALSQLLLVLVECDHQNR

| Substance | Kd [4] [µM] | also measured |
| --- | --- | --- |
| TorD (from UniProt P36662) | – | Kd [1]: 1.7 µM; Kd [2]: 0.059 µM; Kd [3]: 3.8 µM |
| ssTorA(KK)-GFP (domain or fragment) | 0.54 | – |
| ssTorA(KKK)-GFP (domain or fragment) | 4.9 | – |
| ssTorA(KR)-GFP (domain or fragment) | 2.9 | – |
| ssTorA(RK)-GFP (domain or fragment) | 3.6 | – |
| ssTorA-GFP (signal sequence of TorA fused to GFP) (domain or fragment) | 0.33 | stoichiometry N [4]: 1 |
